The target of this assay is AP2 core GST (α2 trunk, β2 trunk and μ2 subunit) (UniProt O94973). The assay is described as follows: pull-down; AP2 core GST (or empty GST) bound to glutathione resin, incubated 3 h at 4 °C with extracts of HEK293 cells transfected with the receptor with or without HPV-16 E7; lysis buffer 50 mM HEPES pH 7.4, 150 mM NaCl, 1 mM MgCl2, 1% Triton X-100; Western blot. Background: In western blotting, separated proteins are transferred to a membrane and probed.
Chain of UniProt O94973 (O94973 whole entry, chain 1 of 3): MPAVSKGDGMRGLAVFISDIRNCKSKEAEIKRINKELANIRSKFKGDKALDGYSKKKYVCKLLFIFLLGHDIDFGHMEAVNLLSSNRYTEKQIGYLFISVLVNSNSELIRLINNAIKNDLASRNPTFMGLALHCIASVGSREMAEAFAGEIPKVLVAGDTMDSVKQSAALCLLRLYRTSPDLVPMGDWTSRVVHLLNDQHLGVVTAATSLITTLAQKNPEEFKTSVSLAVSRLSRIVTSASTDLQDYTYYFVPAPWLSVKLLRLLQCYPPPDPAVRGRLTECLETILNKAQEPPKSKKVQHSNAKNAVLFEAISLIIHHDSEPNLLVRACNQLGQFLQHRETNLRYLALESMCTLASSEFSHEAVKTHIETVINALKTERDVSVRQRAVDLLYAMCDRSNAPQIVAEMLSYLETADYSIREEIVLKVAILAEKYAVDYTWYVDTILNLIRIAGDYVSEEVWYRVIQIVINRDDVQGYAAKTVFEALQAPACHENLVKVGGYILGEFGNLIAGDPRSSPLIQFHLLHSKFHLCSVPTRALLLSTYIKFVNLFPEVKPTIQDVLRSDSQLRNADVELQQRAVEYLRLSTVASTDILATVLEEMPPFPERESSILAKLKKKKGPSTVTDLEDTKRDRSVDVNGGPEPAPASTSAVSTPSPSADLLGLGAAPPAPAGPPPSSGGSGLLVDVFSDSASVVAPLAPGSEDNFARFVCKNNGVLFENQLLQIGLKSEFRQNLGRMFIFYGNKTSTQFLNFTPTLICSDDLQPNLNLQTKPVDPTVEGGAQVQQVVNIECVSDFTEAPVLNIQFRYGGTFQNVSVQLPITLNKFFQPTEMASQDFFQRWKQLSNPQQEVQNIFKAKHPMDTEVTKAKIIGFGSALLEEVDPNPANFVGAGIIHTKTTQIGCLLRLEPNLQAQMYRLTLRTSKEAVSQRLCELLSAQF
Chain of UniProt O94973 (P63010 whole entry, chain 2 of 3, further chain): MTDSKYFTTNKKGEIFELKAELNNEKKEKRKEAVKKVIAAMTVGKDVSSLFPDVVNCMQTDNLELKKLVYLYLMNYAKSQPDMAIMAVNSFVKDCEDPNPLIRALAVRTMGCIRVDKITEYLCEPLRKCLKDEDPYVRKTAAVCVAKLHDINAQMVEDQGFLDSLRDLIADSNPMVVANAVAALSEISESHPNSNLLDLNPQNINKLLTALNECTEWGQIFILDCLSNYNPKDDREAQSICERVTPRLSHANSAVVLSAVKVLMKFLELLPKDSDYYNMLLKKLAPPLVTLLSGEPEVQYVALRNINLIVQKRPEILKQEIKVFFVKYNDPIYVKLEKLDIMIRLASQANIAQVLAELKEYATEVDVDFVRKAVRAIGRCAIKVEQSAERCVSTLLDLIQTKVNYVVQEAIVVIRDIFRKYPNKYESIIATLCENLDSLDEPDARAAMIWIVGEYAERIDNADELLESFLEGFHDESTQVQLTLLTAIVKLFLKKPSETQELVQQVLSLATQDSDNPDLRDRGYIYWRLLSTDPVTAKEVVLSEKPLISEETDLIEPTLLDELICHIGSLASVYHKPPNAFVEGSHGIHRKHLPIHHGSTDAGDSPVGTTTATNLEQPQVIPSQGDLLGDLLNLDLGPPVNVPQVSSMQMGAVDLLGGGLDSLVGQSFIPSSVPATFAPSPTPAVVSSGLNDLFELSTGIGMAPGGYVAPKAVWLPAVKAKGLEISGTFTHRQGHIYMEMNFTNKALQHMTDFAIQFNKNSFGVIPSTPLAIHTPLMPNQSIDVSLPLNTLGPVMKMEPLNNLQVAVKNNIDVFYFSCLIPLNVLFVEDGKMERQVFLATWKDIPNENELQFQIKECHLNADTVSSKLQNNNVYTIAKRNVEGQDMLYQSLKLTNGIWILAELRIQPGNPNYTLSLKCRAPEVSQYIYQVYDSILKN
Chain of UniProt O94973 (Q96CW1 whole entry, chain 3 of 3, further chain): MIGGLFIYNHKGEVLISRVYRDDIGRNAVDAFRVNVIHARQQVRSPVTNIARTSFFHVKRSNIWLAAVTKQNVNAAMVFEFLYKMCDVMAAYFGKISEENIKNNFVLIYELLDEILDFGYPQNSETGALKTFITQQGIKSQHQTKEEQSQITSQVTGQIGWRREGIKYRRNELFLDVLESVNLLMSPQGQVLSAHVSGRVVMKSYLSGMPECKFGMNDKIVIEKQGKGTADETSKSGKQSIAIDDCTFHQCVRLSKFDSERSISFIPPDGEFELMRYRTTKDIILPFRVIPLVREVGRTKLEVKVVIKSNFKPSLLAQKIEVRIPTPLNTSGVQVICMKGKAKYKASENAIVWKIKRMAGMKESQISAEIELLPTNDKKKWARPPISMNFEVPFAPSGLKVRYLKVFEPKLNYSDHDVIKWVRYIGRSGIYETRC

Regarding “HPV-16 E7-FLAG/HA (from UniProt P03129 1-98) (natural protein)”, the percent reduction of the binding of CD109 to the AP2 core in the presence of E7 was found to be 50%, the percent reduction of the binding of EGFR to the AP2 core in the presence of E7 is more than 70% and the percent reduction of the binding of MET to the AP2 core in the presence of E7 was 50%.

The values are drawn from paper PMC10958106.
